Reference: patent US20090048161A1 (VALORISATION HSJ SOCIETE EN COMMANDITE, published 2009)
Where no end group is shown, it is not given here. [ ]: non-standard residue; d: D form.

Experiments:
Assay in all cases: cell-based or functional assay
[1] = biological target: IL-1R (cells or tissue whose species or assay the filing does not state at that place)
[2] = biological target: T1, human Interleukin-1 receptor (IL-1R-alpha) (human, UniProt P14778 18-569)
T1 sequence: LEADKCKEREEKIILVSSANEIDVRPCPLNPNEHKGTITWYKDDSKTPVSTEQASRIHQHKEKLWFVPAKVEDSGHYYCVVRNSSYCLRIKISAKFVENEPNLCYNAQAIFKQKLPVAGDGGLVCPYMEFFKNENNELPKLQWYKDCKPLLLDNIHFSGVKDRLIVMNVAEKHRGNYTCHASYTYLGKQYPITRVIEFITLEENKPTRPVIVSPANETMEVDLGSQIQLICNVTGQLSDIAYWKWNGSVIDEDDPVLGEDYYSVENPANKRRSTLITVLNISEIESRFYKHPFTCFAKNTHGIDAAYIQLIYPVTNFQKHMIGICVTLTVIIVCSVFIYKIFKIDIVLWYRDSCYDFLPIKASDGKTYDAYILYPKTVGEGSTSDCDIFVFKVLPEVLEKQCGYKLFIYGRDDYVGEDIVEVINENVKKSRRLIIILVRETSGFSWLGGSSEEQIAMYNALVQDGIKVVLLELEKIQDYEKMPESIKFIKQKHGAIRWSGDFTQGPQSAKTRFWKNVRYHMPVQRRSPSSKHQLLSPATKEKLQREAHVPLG

[3] = biological target: T2, human Insulin-like growth factor 1 receptor (IGF-1R) (human, UniProt P08069 31-1367)
[4] = biological target: T2, human Insulin-like growth factor 1 …; remark: listed apart in the source

T2 sequence (P08069 31-1367 limits assumed): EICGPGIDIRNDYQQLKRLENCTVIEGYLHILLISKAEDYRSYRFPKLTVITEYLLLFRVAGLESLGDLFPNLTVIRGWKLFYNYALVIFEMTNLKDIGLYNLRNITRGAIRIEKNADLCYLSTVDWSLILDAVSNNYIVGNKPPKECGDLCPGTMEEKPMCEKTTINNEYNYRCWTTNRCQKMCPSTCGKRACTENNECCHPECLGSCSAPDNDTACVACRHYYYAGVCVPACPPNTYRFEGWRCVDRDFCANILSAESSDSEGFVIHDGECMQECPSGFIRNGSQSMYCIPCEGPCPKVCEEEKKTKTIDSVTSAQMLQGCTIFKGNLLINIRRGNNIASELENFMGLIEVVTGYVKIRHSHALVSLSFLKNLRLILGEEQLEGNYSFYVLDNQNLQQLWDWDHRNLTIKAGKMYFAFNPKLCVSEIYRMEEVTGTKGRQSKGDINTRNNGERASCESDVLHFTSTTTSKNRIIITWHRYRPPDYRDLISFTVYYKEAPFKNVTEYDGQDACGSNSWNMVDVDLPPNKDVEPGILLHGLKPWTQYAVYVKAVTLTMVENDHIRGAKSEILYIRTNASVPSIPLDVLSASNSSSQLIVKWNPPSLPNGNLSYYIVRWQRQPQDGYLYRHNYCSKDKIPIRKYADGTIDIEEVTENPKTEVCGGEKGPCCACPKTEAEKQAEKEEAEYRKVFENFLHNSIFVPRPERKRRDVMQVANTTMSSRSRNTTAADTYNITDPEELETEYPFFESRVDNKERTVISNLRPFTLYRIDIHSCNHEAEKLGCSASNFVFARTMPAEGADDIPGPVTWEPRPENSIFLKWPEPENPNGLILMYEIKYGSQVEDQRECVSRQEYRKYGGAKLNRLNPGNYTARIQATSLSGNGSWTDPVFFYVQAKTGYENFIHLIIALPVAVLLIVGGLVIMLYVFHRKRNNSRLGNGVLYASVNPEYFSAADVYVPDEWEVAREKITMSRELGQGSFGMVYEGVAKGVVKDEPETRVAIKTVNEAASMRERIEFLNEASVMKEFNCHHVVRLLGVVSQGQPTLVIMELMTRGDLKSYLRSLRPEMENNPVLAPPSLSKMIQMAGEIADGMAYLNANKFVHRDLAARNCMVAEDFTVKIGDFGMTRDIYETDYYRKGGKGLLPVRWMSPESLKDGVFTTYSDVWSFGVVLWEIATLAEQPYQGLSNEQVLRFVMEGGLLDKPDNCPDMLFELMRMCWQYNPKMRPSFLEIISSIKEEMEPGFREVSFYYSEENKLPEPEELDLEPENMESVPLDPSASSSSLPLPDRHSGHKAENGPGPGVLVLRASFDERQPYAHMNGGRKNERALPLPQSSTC

## [dR][dY][dT][dP][dE][dL][dA] [API-101.107]
[1]
  IC50 (assay not given): 0.0012 nM
[2]
  IC50, PGE2 measurement, human WI-38 cells: 100 nM

## [dE][dS][dD][dV][dL][dH][dF][dT][dS][dT] [APG-202]
[3]
  EC50, IGF-1 (50 ng/ml)-induced proliferation, MCF-7: 300 nM
  Emax, IGF-1 (50 ng/ml)-induced proliferation, MCF-7: 20%
[4]
  EC50, IGF-1 induced proliferation, 3H-thymidine, A549 carcinoma cells: 10 nM

## [dS][dL][dF][dV][dP][dR][dP][dE][dR][dK] [APG-201]
[3]
  EC50, IGF-1 (50 ng/ml)-induced proliferation, MCF-7: 35 nM
  EC50, IGF-1 (50 ng/ml)-induced proliferation, MDA-MB-231: 0.1 nM
  Emax, IGF-1 (50 ng/ml)-induced proliferation, MCF-7: 20%
  Emax, IGF-1 (50 ng/ml)-induced proliferation, MDA-MB-231: 100%
[4]
  EC50, IGF-1 induced proliferation, 3H-thymidine, A549 carcinoma cells: 1000 nM
